Among the data in article PMC5177622, “Multivalent Histone and DNA Engagement by a PHD/BRD/PWWP Triple Reader Cassette Recruits ZMYND8 to K14ac-Rich Chromatin” (Cell Reports, 2016) are ratio to parent and Kd values, retold here.

One assay has as its target histone H3 K36me (m36). Briefly: anti-FLAG immunoprecipitation and western blot, quantified. Particulars: HEK293 cells transiently transfected; three biological replicates; anti-H3K36me blot; parent: est. 1.0; read off a plot.
The next assay has as its target histone H3 K36me2 (m36). The description is as above. As to conditions: HEK293 cells transiently transfected; three biological replicates; anti-H3K36me2 blot; parent: est. 1.0; read off a plot.
The target of a further assay is histone H3 K36me3 (m36). Described as above. As to conditions: HEK293 cells transiently transfected; three biological replicates; anti-H3K36me3 blot; parent: est. 1.0; read off a plot.
The next assay concerns the target histone H3 K9ac (m36). The description is as above. Particulars: HEK293 cells transiently transfected; three biological replicates; anti-H3K9ac blot; parent: est. 1.0; read off a plot.
Assay [1] deals with ZMYND8 PHD/BRD/PWWP triple reader cassette (Q83-S406), wild type (human). Briefly: ITC; ITC200; peptides titrated into a solution of ZMYND8; single-site binding model; n = 3.

Consider “3×FLAG-ZMYND8 full length, wild type (from UniProt Q9ULU4-13) F288A; W291A”, for which the ratio to parent with histone H3 K36me (m36) is 0.28; with histone H3 K36me2 (m36) it was 0.08; in the assay with histone H3 K36me3 (m36), 0.39.

Regarding “3×FLAG-ZMYND8 full length, wild type (from UniProt Q9ULU4-13) N228F”, the ratio to parent with histone H3 K9ac (m36) came out at 0.19.

In turn, “Histone H3.3 40-aa recombinant peptide, K14ac (from UniProt P84243 2-41)” gave a Kd in assay [1] of 6.8 µM.
